Results as given in PMC3438196.

Target: Apobec3G S137A MAPPIT bait (human) (UniProt Q9HC16)
Test: two-hybrid; MAPPIT (mammalian two-hybrid) in intact HEK293T cells: bait on the EpoR/leptin receptor chimera, prey on gp130 fragments, pXP2d2-rPAP1-luciferase reporter; fold induction of luciferase, Epo-stimulated (10 ng/ml hEpo) over unstimulated; 6-well or 96-well calcium phosphate transfection

Apobec3G S137A MAPPIT bait (human), sequence (Q9HC16 whole entry S137A, the tested form may be a part): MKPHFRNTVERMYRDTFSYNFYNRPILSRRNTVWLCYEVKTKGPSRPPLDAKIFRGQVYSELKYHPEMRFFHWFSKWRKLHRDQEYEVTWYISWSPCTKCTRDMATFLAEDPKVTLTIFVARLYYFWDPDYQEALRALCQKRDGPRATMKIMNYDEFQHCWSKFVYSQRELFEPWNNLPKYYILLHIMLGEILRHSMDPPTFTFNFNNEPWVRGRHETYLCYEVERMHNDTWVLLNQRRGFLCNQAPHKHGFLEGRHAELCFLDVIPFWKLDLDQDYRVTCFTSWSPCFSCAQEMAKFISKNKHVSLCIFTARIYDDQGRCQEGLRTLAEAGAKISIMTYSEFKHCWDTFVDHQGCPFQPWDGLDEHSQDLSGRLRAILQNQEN

Substance: Gagpol MAPPIT prey (pMG2-Gagpol) (natural protein)
- MAPPIT signal, % of WT: 127 % of WT
